In US20240016901A1, “COMPOSITIONS AND METHODS FOR PREVENTING AND TREATING SARS-COV-2 INFECTION” (priority 2020, published 2024):

B1: Hololactoferrin: Hololactoferrin (Sigma Aldrich, L4765) (protein, UniProt P02788 20-710, looked up)
Lactotransferrin: GRRRSVQWCAVSQPEATKCFQWQRNMRKVRGPPVSCIKRDSPIQCIQAIAENRADAVTLDGGFIYEAGLAPYKLRPVAAEVYGTERQPRTHYYAVAVVKKGGSFQLNELQGLKSCHTGLRRTAGWNVPIGTLRPFLNWTGPPEPIEAAVARFFSASCVPGADKGQFPNLCRLCAGTGENKCAFSSQEPYFSYSGAFKCLRDGAGDVAFIRESTVFEDLSDEAERDEYELLCPDNTRKPVDKFKDCHLARVPSHAVVARSVNGKEDAIWNLLRQAQEKFGKDKSPKFQLFGSPSGQKDLLFKDSAIGFSRVPPRIDSGLYLGSGYFTAIQNLRKSEEEVAARRARVVWCAVGEQELRKCNQWSGLSEGSVTCSSASTTEDCIALVLKGEADAMSLDGGYVYTAGKCGLVPVLAENYKSQQSSDPDPNCVDRPVEGYLAVAVVRRSDTSLTWNSVKGKKSCHTAVDRTAGWNIPMGLLFNQTGSCKFDEYFSQSCAPGSDPRSNLCALCIGDEQGENKCVPNSNERYYGYTGAFRCLAENAGDVAFVKDVTVLQNTDGNNNEAWAKDLKLADFALLCLDGKRKPVTEARSCHLAMAPNHAVVSRMDKVERLKQVLLHQQAKFGRNGSDCPDKFCLFQSETKNLLFNDNTECLARLHGKTTYEKYLGPQYVAGITNLKKCSTSPLLEACEFLRK
modifications: iron-saturated holo form
B2: Lacto ferrin: a protein found in milk and other secretory fluids; diet supplement (protein, UniProt P24627 20-708, looked up)
Lactotransferrin: APRKNVRWCTISQPEWFKCRRWQWRMKKLGAPSITCVRRAFALECIRAIAEKKADAVTLDGGMVFEAGRDPYKLRPVAAEIYGTKESPQTHYYAVAVVKKGSNFQLDQLQGRKSCHTGLGRSAGWIIPMGILRPYLSWTESLEPLQGAVAKFFSASCVPCIDRQAYPNLCQLCKGEGENQCACSSREPYFGYSGAFKCLQDGAGDVAFVKETTVFENLPEKADRDQYELLCLNNSRAPVDAFKECHLAQVPSHAVVARSVDGKEDLIWKLLSKAQEKFGKNKSRSFQLFGSPPGQRDLLFKDSALGFLRIPSKVDSALYLGSRYLTTLKNLRETAEEVKARYTRVVWCAVGPEEQKKCQQWSQQSGQNVTCATASTTDDCIVLVLKGEADALNLDGGYIYTAGKCGLVPVLAENRKSSKHSSLDCVLRPTEGYLAVAVVKKANEGLTWNSLKDKKSCHTAVDRTAGWNIPMGLIVNQTGSCAFDEFFSQSCAPGADPKSRLCALCAGDDQGLDKCVPNSKEKYYGYTGAFRCLAEDVGDVAFVKNDTVWENTNGESTADWAKNLNREDFRLLCLDGTRKPVTEAQSCHLAVAPNHAVVSRSDRAAHVKQVLLHQQALFGKNGKNCPDKFCLFKSETKNLLFNDNTECLAKLGGRPTYEEYLGTEYVTAIANLKKCSTSPLLEACAFLTR
B3: apolactoferrin: apolactoferrin (Jarrow Formulas, 121011); component of dietary supplements (protein, UniProt P24627 20-708, looked up)
Lactotransferrin: B2 Lactotransferrin
modifications: iron-free apo form
notes: apolactoferrin (Jarrow Formulas, 121011); component of dietary supplements

Experiments:
SARS-CoV-2 [1] = assay: microbe, parasite or virus in culture; format: cell-based; settings: Huh-7 cells; for anti-SARS-CoV-2 activity, percentage of infected Huh-7 cells: protein at 2.3 μM, FIG. 6E
SARS-CoV-2 [2] = format: cell-based, SARS-CoV-2 WA1; settings: Huh-7 cells, MOI 0.2, 48 hrs p.i., FIG. 6C
[3] = system: IFNβ, ISG15, MX1, Viperin and IFITM3; assay: qPCR of IFNβ and interferon-stimulated gene mRNA in Huh-7 cells; format: cell-based, human; settings: lactoferrin-treated Huh-7 cells, FIG. 6D
SARS-CoV-2 [4] = format: cell-based, SARS-CoV-2 WA1; settings: iAECs, pretreatment 1.15 μM, MOI 10

Molecule | anti-SARS-CoV-2 activity, percentage of infected Huh-7 cells (SARS-CoV-2 [1]) | viral replication (viral genome copies) (SARS-CoV-2 [2]) | antiviral activity against SARS-CoV-2 (in words) (SARS-CoV-2 [1]) | antiviral activity when added after infection (SARS-CoV-2 [1]; 2.3 μM added 1 or 24 hrs p.i., MOI 1, 5 and 10, FIG. 6B) | EC50 (SARS-CoV-2 [1]; MOI 0.2, 10-point two-fold dilution dose response in triplicate) [nM] | potentiation of efficacy in combination with remdesivir (SARS-CoV-2 [1]; MOI 0.2, FIG. 6G, FIG. 7A) | potentiation of efficacy in combination with hydroxychloroquine (SARS-CoV-2 [1]; MOI 10, FIG. 6H, FIG. 7B) | IC50 (SARS-CoV-2 [1]; read-out: IC50 against SARS-CoV-2 infection) [nM] | mRNA levels of IFNβ and interferon-stimulated genes ISG15, MX1, Viperin and IFITM3 [3] | reduction in the proportion of SARS-CoV-2 infected cells (SARS-CoV-2 [4])
B1 | robust antiviral effect | – | – | – | – | – | – | – | – | –
B2 | – | dose-dependent reduction of viral replication | dose-dependent (3 nM-2.3 μM) and MOI-dependent (0.2-10) antiviral activity | retains antiviral activity | 308 | potentiates the efficacy | potentiates the efficacy | 308 | elevated | two-fold reduction
B3 | robust antiviral effect | – | – | – | – | – | – | – | – | –
